In article PMC7422855:

Target: human n-Glyceraldehyde-3-phosphate dehydrogenase (human) (UniProt P04406)
Assay: SEC-MALS; Superdex S200 10/300 in 20 mM HEPES pH 7.5, 100 mM NaCl, 1 mM TCEP; 18-angle MALS detector with differential refractive index detector

human n-Glyceraldehyde-3-phosphate dehydrogenase, P04406 1-335 (enzyme; Cys152 partially oxidised to cysteine S-sulfonic acid (average occupancy 0.31±0.17 over 20 copies in crystal forms A, C and D; not significant in crystal form B); Cys152 partially oxidised to cysteine S-sulfonic acid (average occupancy 0.31±0.17 over 20 copies in crystal forms A, C and D; not significant in crystal form B); other documents disagree on this pair)
stoichiometry N: 4
